# Test results from paper PMC11623648.
# Target: Integrin αIIbβ3 (human (endogenous in platelets)) (UniProt P05106)
# Assay: cryo-EM structure
substance,measurement,value
Integrin αIIbβ3 (from UniProt P05106 27-788) (complex),stoichiometry N,2
